Target: forh_dicdi forH (UniProt Q54N00)
Sequence (Q54N00 whole entry): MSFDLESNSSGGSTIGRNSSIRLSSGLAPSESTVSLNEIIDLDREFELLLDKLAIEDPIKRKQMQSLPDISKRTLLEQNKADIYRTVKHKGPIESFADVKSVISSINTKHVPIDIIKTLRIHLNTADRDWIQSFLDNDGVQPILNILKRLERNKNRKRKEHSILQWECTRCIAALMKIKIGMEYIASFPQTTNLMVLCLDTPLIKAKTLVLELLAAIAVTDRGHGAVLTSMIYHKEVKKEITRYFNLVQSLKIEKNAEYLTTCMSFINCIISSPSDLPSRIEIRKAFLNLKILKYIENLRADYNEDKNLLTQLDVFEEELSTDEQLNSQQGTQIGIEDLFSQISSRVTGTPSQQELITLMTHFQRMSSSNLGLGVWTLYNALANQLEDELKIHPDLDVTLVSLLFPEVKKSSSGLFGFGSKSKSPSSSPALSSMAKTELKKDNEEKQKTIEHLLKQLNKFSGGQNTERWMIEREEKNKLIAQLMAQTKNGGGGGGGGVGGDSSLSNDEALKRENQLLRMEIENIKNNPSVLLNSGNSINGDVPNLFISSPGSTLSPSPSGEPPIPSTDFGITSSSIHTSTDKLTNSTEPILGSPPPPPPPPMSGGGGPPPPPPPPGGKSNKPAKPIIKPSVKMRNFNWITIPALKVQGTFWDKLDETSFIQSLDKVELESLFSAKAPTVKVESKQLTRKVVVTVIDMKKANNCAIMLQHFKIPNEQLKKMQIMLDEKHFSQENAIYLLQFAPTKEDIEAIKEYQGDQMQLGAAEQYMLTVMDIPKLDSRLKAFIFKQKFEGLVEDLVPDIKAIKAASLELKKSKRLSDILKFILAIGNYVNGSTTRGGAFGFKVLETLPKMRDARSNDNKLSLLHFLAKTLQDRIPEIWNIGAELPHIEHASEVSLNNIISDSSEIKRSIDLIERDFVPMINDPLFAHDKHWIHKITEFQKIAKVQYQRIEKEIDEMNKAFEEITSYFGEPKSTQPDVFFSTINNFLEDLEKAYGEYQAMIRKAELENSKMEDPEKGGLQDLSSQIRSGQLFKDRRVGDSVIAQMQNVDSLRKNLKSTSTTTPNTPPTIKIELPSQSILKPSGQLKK

Row | Substance | effect of a mutation on the interaction
1 | Rho-related protein rac1A (Dictyostelium discoideum (Slime mold)), P34144 G12V | decreasing interaction
2 | Rho-related protein rac1A (Dictyostelium discoideum (Slime mold)), P34144 T17N | disrupting interaction
